Source: patent CN111234017A (NANJING YOUMAI BIOTECHNOLOGY CO LTD, dated 2020)

How the values were obtained:
[1] = target: 食蟹猴PD-L1蛋白 (cynomolgus monkey PD-L1 protein) (cynomolgus monkey); experiment: ELISA on coated cynomolgus PD-L1 protein
[2] = target: T1, human PD-L1 expressed on cells (CT26 transfected with human PD-L1, HCC827, Raji-PD-L1, CHO-PDL1-OKT3) (human, UniProt Q9NZQ7 19-290); experiment: flow cytometry on CT26 cells transfected with human PD-L1
T1 construct: whole, on cells; For CT26 the plasmid encodes human PD-L1 and HCC827 is a human tumour line; also called 过表达PD-L1的CT26细胞; HCC827细胞

[3] = target: T1, human PD-L1 expressed on cells (CT26 …); experiment: flow cytometry on HCC827 cells naturally overexpressing PD-L1
[4] = target: T2, 人PD-L1蛋白 (human PD-L1 protein) (human, UniProt Q9NZQ7 19-238, limits assumed); experiment: ELISA, human PD-L1 protein coated at 1 μg/mL, HRP secondary antibody, OD450
T2 construct: also called CD274; B7-H1

[5] = target: T1, human PD-L1 expressed on cells (CT26 …); experiment: flow cytometry competition: inhibition of human PD-1-Fc binding to Raji-PD-L1 cells
[6] = target: T2, 人PD-L1蛋白 (human PD-L1 protein); experiment: SPR, Biacore 8K, antibody captured on protein A sensor chip, PD-L1 protein as analyte
[7] = target: T1, human PD-L1 expressed on cells (CT26 …); experiment: cell-based or functional assay

T2 sequence (Q9NZQ7 19-238 limits assumed): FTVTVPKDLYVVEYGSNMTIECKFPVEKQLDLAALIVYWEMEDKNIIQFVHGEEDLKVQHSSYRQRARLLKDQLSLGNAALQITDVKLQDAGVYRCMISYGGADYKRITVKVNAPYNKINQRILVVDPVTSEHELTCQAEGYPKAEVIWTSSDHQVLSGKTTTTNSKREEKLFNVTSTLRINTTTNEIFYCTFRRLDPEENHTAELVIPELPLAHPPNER
T1 sequence (Q9NZQ7 19-290): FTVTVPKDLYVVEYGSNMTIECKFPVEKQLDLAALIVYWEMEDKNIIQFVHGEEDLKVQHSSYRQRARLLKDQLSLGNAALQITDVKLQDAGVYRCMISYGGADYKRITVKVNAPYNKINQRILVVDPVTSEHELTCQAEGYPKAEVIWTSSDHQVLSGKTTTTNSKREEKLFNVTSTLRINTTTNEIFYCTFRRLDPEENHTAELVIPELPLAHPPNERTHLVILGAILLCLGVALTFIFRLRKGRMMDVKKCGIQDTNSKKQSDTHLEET

EC50 [1] [µg/mL]	EC50 [2] [µg/mL]	EC50 [3] [µg/mL]	EC50 [4] [µg/mL]	IC50 [5] [µg/mL]	Kd [6] [nM]	Jurkat-PD-1/NFAT-luciferase报告基因活性 (luciferase bioluminescence), EC50 [7] [µg/mL]	Binder
0.0422	0.209	0.0445	0.216	0.481			人-鼠嵌合抗体MT02-L4 (human-mouse chimeric anti-human PD-L1 antibody MT02-L4) (antibody, human IgG1, kappa, V domains shown, Mouse 13B8 variable regions joined to the human IgG1 heavy constant region and the kappa constant region) VH: EVQLQESGPSLVKPSQTLSLTCSVTGDSITSGYWSWIRKFPGNNLDYMGYISYTGSTYYSPSLIRRMSINRDTSKNQFYLQLNSVTTEDTATYYCAKYENWKEGYFDIWGAGTTVTVSS VL: DIVMTRSQKFMSTSVGDRVSVTCKASQNVGINVAWYQQKAGQSPKALIHSATQRYSGVPDRFTGGGSGTDFTLTIDDVQSADLAEYFCQQYYGYPLTFGAGTRLELKR
	0.378	0.0864	0.0651	0.298	0.4	0.0838	人源化抗体MT02-C4 (humanized anti-human PD-L1 antibody MT02-C4) (antibody, human IgG1, kappa, V domains shown, Humanized (CDR grafting with back mutations), human IgG1 / kappa) VH: QVQLQESGPGLVKPSETLSLTCTVSGDSITSGYWSWIRQPPGKGLEYMGYISYTGSTYYSPSLIRRMTISRDTSKNQFSLKLSSVTAADTAVYYCAKYENWKEGYFDIWGQGTLVTVSS VL: DIQMTQSPSSLSASVGDRVTITCKASQNVGINVAWYQQKPGKAPKALIYSATQRYSGVPSKFSGSGSGTDFTLTISSLQPEDFATYFCQQYYGYPLTFGQGTRLEIKR
